Measured values: IntAct's records for PubMed 17185412

Assays:
syt1_mouse Syt1 = syt1_mouse Syt1 (UniProt P46096)
syt2_mouse Syt2 = syt2_mouse Syt2 (UniProt P46097)

| Substance | effect of a mutation on the interaction (syt1_mouse Syt1) | effect of a mutation on the interaction (syt2_mouse Syt2) |
| --- | --- | --- |
| Botulinum neurotoxin type B (Clostridium botulinum) (from UniProt P10844) W1262L | decreasing interaction strength |  |
| Botulinum neurotoxin type B (Clostridium botulinum) (from UniProt P10844) K1192E | decreasing interaction strength |  |
| Botulinum neurotoxin type B (Clostridium botulinum) (from UniProt P10844) V1118D | decreasing interaction strength | decreasing interaction strength |
| Botulinum neurotoxin type B (Clostridium botulinum) (from UniProt P10844) K1192M | decreasing interaction strength |  |
| Botulinum neurotoxin type B (Clostridium botulinum) (from UniProt P10844) Y1183R | decreasing interaction strength | decreasing interaction strength |
